# Numbering of substitutions follows the chain as printed. Square brackets hold non-standard residues; d marks the D form. Ends that are not written are not given here. pS = N[C@@H](COP(=O)(O)O)C(=O)O
# B1: anti-TfR1 antibody (TfR1) (antibody, V domains shown)
# VH: EVQLQQSGPELVKPGASMKISCKASGYSFTGYTMNWVKQSHGENLEWIGRINPHNGGTDYNQKFKDKAPLTVDKSSNTAYMELLSLTSEDSAVYYCARGYYYYSLDYWGQGTSVTVSS
# VL: QIVLTQSPAIMSASPGEKVTMTCSASSSIRYIHWYQQRPGTSPKRWIYDTSNLASGVPARFSGSGSGTSYSLTISSMEAEDAATYYCHQRNSYPWTFGGGTRLEIKR
# notes: also called parent antibody
# B2: anti-TfR2 antibody (TfR2) (antibody, V domains shown)
# VH: EVQLQQSGPELVKPGASVKMSCKASGYTFTSYVMHWVKQKPGQGLEWIGYVNPYNDDTKYNEKFRGKATLTSDKSSSTAYMELSSLTSEDSAVYYCARSYYYYSMDNWGQGTSVTVSS
# VL: B1 VL with M21V, I32M, R38K, N52E, S75N, N91S, W95F, R102K
# notes: also called parent antibody
# B3: TfR1-Bio (bispecific antibody, human IgG1, kappa)
# heavy: not shown
# light: QIVLTQSPAIMSASPGEKVTMTCSASSSIRYIHWYQQRPGTSPKRWIYDTSNLASGVPARFSGSGSGTSYSLTISSMEAEDAATYYCHQRNSYPWTFGGGTRLEIKRTVAAPSVFIFPPSDEQLKSGTASVVCLLNNFYPREAKVQWKVDNALQSGNSQESVTEQDSKDSTYSLSSTLTLSKADYEKHKVYACEVTHQGLSSPVTKSFNRGEC
# notes: bivalent anti-TfR1 IgG with an anti-biotin scFv at each CH3 C-terminus; also called anti-TfR1 antibody-Bio
# B4: TfR2-Bio (bispecific antibody, human IgG1, kappa)
# heavy: not shown
# light: B3 light with M21V, I32M, R38K, N52E, S75N, N91S, W95F, R102K
# notes: bivalent anti-TfR2 IgG with an anti-biotin scFv at each CH3 C-terminus; also called anti-TfR2-Bio
# B5: VH00/VL00 (antibody, V domains shown)
# VH: QSVEESGGRLVTPGTPLTLTCTVSGFSLSSNAINWVRQAPGKGLEWIGYIAVSGNTYYASWAKGRFTISKASTTVDLKMTSPTAEDTGTYFCGKSNIWGPGTLVTVSL
# VL: AQVLTQTTSPVSAAVGSTVTISCQSSQSVRTNKLAWFQQKPGQPPKRLIYSASTLDFGVPSRFSASGSGTQFTLTISDVQCDDAATYYCLGYFDCSIADCVAFGGGTEVVVK
# notes: rabbit variable domains; also called VH00 with VL00 (rabbit antibody); parent rabbit antibody
# B6: mAb 086 (antibody, V domains shown)
# VH: B5 VH
# VL: B5 VL
# notes: recombinant rabbit IgG; also called rabbit antibody mAb 086
# B7: VH32/VL21 (antibody, V domains shown)
# VH: EVQVLESGGGLVQPGGSLRLSCAVSGFSLSSNAINWVRQAPGKGLEWVGYIAVSGNTYYASWAKGRFTISRDNSKNTVYLQMNSLRAEDTAVYYCGKSNIWGQGTLVTVSS
# VL: AQVMTQSPSSLSASVGDRVTITCRSSQSVRTNKLAWFQQKPGQPPKRLIYSASTLDFGVPSRFSGSGSGTEFTLTISSLQPEDFATYYCLGYFDSSADIVAFGGGTKVEIK
# notes: full size IgG; kappa (59) or lambda (60) light constant not specified
# B8: VH32/VL22 (antibody, V domains shown)
# VH: B7 VH
# VL: B7 VL with K33R, F57Y
# notes: as for B7
# Key:
# [1] = molecular target: T1, transferrin receptor on hCMEC/D3 cells (UniProt P02786 1-760, limits assumed); assay: transwell assay on hCMEC/D3 cells, huFc ELISA
# T1 construct: whole, on cells; also called TfR
# [2] = molecular target: T1, transferrin receptor on hCMEC/D3 cells; assay: transwell assay on hCMEC/D3 cells, huFc ELISA; remark: listed apart in the source
# [3] = molecular target: T1, transferrin receptor on hCMEC/D3 cells; assay: transwell assay on hCMEC/D3 cells, IgG ELISA
# Procedure: We used brain endothelial cells (hCMEC/D3) to investigate cell binding and transcytosis of the shuttle modules as reported herein. […] Cell monolayers were washed at room temperature in serum-free medium apically (400 μl) and basolaterally (1600 μl) three times for 3-5 minutes each. All wash volumes were collected to monitor efficiency of removal of the unbound ligand or antibody. Pre-warmed medium was added to the apical chamber and the filters transferred to a fresh 12 well plate (blocked overnight with PBS containing 1% BSA) containing 1600 μl pre-warmed medium. At this point, cells were lysed in 500 μl RIPA buffer (Sigma, Munich, Germany, #R0278) in order to determine specific uptakes. The remaining filters were incubated at 37° C. and samples collected at various time points to determine apical and/or basolateral release. The content of antibody in the samples was quantified using a highly sensitive IgG ELISA.
# [4] = molecular target: full length human tau S422A mutant (human, UniProt P10636 2-758); assay: ELISA, coated antigen
# [5] = molecular target: T2, MCAK_Human (88-102)[95-pSer] (human, UniProt Q99661 88-102, also: biotinylated, site not given here); assay: ELISA, single point
# T2 construct: also called MCAK phosphopeptide
# T2 peptide (looked up): IQKQKRR[pS]VNSKIPA
# [6] = molecular target: T3, human tau(pS422) fragment SEQ ID NO: 03 (human, also: biotinylated); assay: ELISA, ratio of EC50 values
# T3 construct: also called phosphorylated tau peptide
# T3 peptide: SIDMVD[pS]PQLATLAD
# Procedure: (§1) Rabbit monoclonal antibodies were recombinantly expressed in HEK 293 cells. […] Coating with KLH or control peptides was performed at 1 μg/ml. […] After intensive washing, the binding of the rabbit antibodies was detected using a sheep anti-rabbit IgG digoxigenin conjugated detection antibody (Chemicon AQ301D). […] The antibody binding was characterized by its EC50 values. […] Cross-reactivity with KLH or MCAK phosphopeptide was estimated by single-point measurement at high concentrations, i.e. at 1:5 dilution of the cell culture supernatants.
# [7] = molecular target: T3, human tau(pS422) fragment SEQ ID NO: 03; assay: ELISA, biotinylated peptide on streptavidin plate
# Procedure: as §1
# [8] = molecular target: T4, tau peptide residues 416 to 430 of SEQ ID NO: 01 (human, also: biotinylated, site not given here); assay: ELISA, biotinylated peptide on streptavidin plate
# T4 construct: also called non-phosphorylated tau peptide
# T4 peptide: SIDMVDSPQLATLAD
# [9] = molecular target: T3, human tau(pS422) fragment SEQ ID NO: 03; assay: ELISA, coated antigen
# [10] = molecular target: T4, tau peptide residues 416 to 430 of SEQ …; assay: ELISA, coated antigen
# full length human tau S422A mutant, sequence (P10636 other isoform, or with tags, fused parts or gaps S422A S422A limits assumed): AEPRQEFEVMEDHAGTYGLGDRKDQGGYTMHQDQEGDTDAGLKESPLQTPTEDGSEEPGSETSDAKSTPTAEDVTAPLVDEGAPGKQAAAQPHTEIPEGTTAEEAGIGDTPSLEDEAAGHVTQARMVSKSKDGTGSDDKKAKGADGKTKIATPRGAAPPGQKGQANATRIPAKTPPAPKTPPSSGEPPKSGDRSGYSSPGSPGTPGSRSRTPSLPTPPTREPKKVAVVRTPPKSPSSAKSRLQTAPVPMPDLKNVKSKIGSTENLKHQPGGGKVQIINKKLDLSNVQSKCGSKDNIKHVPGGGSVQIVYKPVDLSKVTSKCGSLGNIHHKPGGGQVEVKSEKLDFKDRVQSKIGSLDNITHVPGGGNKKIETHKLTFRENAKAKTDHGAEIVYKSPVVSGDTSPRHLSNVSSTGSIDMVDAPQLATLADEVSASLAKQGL
# T1 sequence (P02786 whole entry): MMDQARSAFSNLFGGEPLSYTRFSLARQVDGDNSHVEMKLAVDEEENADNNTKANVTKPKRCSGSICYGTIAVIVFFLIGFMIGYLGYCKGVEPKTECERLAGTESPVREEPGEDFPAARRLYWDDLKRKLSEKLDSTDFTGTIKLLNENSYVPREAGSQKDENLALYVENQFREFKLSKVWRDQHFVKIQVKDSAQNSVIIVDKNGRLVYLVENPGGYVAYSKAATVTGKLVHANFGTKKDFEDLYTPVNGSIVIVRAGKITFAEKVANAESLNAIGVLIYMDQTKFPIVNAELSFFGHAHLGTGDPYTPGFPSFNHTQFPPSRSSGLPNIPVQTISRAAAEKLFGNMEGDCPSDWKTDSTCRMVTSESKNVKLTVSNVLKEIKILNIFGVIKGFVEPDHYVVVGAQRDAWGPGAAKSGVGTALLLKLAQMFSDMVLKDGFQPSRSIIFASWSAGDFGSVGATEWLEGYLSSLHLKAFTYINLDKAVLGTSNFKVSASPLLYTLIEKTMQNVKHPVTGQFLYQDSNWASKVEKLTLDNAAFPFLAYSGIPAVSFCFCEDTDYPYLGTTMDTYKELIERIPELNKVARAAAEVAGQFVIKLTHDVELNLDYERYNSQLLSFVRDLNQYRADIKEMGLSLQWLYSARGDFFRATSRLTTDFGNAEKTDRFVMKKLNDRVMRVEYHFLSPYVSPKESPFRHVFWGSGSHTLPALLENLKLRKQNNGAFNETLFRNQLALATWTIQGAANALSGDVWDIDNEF
binder,measurement,setting,value
B1,binding result,[1],binds
B2,binding result,[2],binds
B3,binding result,[3],binds
B4,binding result,[3],binds
B5,EC50,[4],0.0479 µg/mL
B6,binding result,[5],no binding
same,selectivity against non-phosphorylated tau peptide,[6],≥ 100 fold
same,EC50,[7],0.0011 µg/mL
same,EC50,[8],0.266 µg/mL
B7,EC50,[9],0.0044 µg/mL
same,EC50,[4],0.0215 µg/mL
same,EC50,[10],0.634 µg/mL
B8,EC50,[4],0.0174 µg/mL
same,EC50,[10],0.048 µg/mL

# From patent publication US20170106084A1 (Hoffmann-La Roche, published 2017)
